Laboratory results reported in the supplement of paper PMC10598134.
± gives the standard deviation.

Test: collision cross section of modified peptide (TIMS, N2, iRT-aligned); higher = larger / more extended gas-phase ion
Method in brief: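 Values are averages of 1–3 technical replicates of the most abundant feature for each charge state. Collision cross section was obtained from the Mason-Schamp equation after 1/K0 calibration with three reference ions and run-wise alignment to the median iRT peptide deviation. Synthetic peptide pools (iRT standard spiked 1:40) were separated on a 120-min nanoflow C18 gradient at 60 °C, analysed on a timsTOF Pro/HT (dda-PASEF, nitrogen, ~2.4 mbar) and identified with MaxQuant.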

[1] = charge state: 2, modification: Biotin
[2] = charge state: 2, modification: Butyryl
[3] = charge state: 3, modification: Butyryl
[4] = charge state: 2, modification: Glutarylation
[5] = charge state: 3, modification: Glutarylation
[6] = charge state: 2, modification: Acetyl (K)
[7] = charge state: 3, modification: Biotin
[8] = charge state: 2, modification: Malonyl
[9] = charge state: 3, modification: Acetyl (K)
[10] = charge state: 2, modification: Methyl (K)
[11] = charge state: 3, modification: Methyl (K)
[12] = charge state: 2, modification: Methyl (R)
[13] = charge state: 3, modification: Methyl (R)
[14] = charge state: 2, modification: Crotonyl
[15] = charge state: 3, modification: Crotonyl

SSDLTDRVK [_S(HexNAc (ST))SDLTDRVK_]
collision cross section (charge state: 2, modification: HexNAc (ST)): 362.74 ± 0.12 Å² | collision cross section (charge state: 3, modification: HexNAc (ST)): 449.63 ± 1.1 Å²

LLEEEDSKLK [_LLEEEDSK(Biotin)LK_]
collision cross section [1]: 405.12 ± 2.5 Å²

FLQEFYQDDELGKK [_FLQEFYQDDELGK(Butyryl)K_]
collision cross section [2]: 451.46 ± 0.51 Å² | collision cross section [3]: 506.1 Å²

IHNAENIQPGEQKYEYK [_IHNAENIQPGEQK(Gluratylation)YEYK_]
collision cross section [4]: 490.8 ± 1.2 Å² | collision cross section [5]: 532.09 ± 1.1 Å²

LAEEENKAK [_LAEEENK(Acetyl (K))AK_]
collision cross section [6]: 348.53 ± 3.9 Å²

ALASIDSKLNQAK [_ALASIDSK(Biotin)LNQAK_]
collision cross section [1]: 417.14 ± 2.9 Å² | collision cross section [7]: 481.19 Å²

DYSSGFGGKYGVQADR [_DYSSGFGGK(Malonyl)YGVQADR_]
collision cross section [8]: 435.88 ± 0.59 Å²

TPNLYIYSKK [_TPNLYIYSK(Acetyl (K))K_]
collision cross section [6]: 385.54 ± 0.92 Å²

GFALVGVGSEASSKK [_GFALVGVGSEASSK(Biotin)K_]
collision cross section [1]: 423.88 ± 1.4 Å² | collision cross section [7]: 494.71 ± 0.97 Å²

VPTTEKPTVTVNFR [_VPTTEK(Acetyl (K))PTVTVNFR_]
collision cross section [6]: 421.49 ± 1.9 Å² | collision cross section [9]: 507.52 ± 1 Å²

ALASIDSKLNQAK [_ALASIDSK(Gluratylation)LNQAK_]
collision cross section [4]: 406.86 ± 0.54 Å² | collision cross section [5]: 470.57 Å²

GAEKTEVAEPR [_GAEK(Methyl (K))TEVAEPR_]
collision cross section [10]: 369.74 ± 0.22 Å² | collision cross section [11]: 441.71 ± 4.3 Å²

VRLQTTLR [_VR(Methyl (R))LQTTLR_]
collision cross section [12]: 349.69 ± 0.95 Å² | collision cross section [13]: 439.94 ± 4.3 Å²

DVNAAIAAIKTK [_DVNAAIAAIK(Acetyl (K))TK_]
collision cross section [6]: 390.07 ± 14 Å² | collision cross section [9]: 457.21 Å²

LQAAYAGDKADDIQK [_LQAAYAGDK(hydroxyisobutyryl)ADDIQK_]
collision cross section (charge state: 2, modification: hydroxyisobutyryl): 440.97 ± 0.91 Å²

DVNAAIAAIKTK [_DVNAAIAAIK(GlyGly (K))TK_]
collision cross section (charge state: 2, modification: GlyGly (K)): 401.67 ± 0.99 Å² | collision cross section (charge state: 3, modification: GlyGly (K)): 465.81 ± 1.1 Å²

ITASLCDLKSR [_ITASLCDLK(Methyl (K))SR_]
collision cross section [10]: 398.61 Å² | collision cross section [11]: 456.95 ± 2.7 Å²

GGGGGGGGGAPRGR [_GGGGGGGGGAPR(Methyl (R))GR_]
collision cross section [12]: 346.08 ± 2.1 Å² | collision cross section [13]: 427.42 ± 3.8 Å²

DYSAPVNFISAGLKK [_DYSAPVNFISAGLK(Butyryl)K_]
collision cross section [2]: 437.47 ± 5.8 Å² | collision cross section [3]: 532.64 Å²

SEASSEFAKK [_SEASSEFAK(Acetyl (K))K_]
collision cross section [6]: 349.46 ± 1 Å²

GTVPDDAVEALADSLGKK [_GTVPDDAVEALADSLGK(Crotonyl)K_]
collision cross section [14]: 456.44 ± 0.38 Å² | collision cross section [15]: 536.14 Å²

DDSFLGKLGGTLAR [_DDSFLGK(Acetyl (K))LGGTLAR_]
collision cross section [6]: 410.51 ± 1.7 Å² | collision cross section [9]: 489.73 Å²

DASTLQSQKAEGTGDAK [_DASTLQSQK(Malonyl)AEGTGDAK_]
collision cross section [8]: 438.73 ± 1.8 Å² | collision cross section (charge state: 3, modification: Malonyl): 490.61 ± 1.6 Å²

IINEPTAAAIAYGLDKK [_IINEPTAAAIAYGLDK(Crotonyl)K_]
collision cross section [14]: 463.28 ± 1.3 Å² | collision cross section [15]: 561.41 ± 1.2 Å²

VQGGALEDSQLVAGVAFKK [_VQGGALEDSQLVAGVAFK(Dimethyl (K))K_]
collision cross section (charge state: 3, modification: Dimethyl (K)): 554.94 ± 0.79 Å²
